One molecule from US20060088510A1 (BRIGHAM AND WOMEN S HOSPITAL, published 2006) can be followed below.

No end group written: not given here.

For this assay, the target named is T1, Streptavidin (UniProt P22629 37-163, limits assumed).
T1 construct: also called 35S-streptavidin; Radiolabeled Streptavidin (35S-SLR labeled)
Briefly: radioligand binding assay, 35S-streptavidin on 1:100 biotinylated:nonbiotinylated self-assembling peptides (1% w/v). The source says: We have previously shown that biotinylated peptides can be synthesized and incorporated with self-assembling (Davis, et al., Circ Res 97: 8-15 (2005)). To allow sufficient distance from the peptide to allow streptavidin binding (Livnah, et al., Proc Natl Acad Sci USA 90:5076-5080 (1993); Pugliese, et al., J. Mol Biol 231:698-710 (1993)), the biotin was attached to the peptide by two N-e-Fmoc-e-aminocaproic acids.

T1 sequence (P22629 37-163 limits assumed): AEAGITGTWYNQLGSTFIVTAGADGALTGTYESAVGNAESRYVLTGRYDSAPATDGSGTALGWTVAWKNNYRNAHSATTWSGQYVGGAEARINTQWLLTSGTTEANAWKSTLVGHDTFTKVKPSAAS

B1: Biotinylated RAD16-II peptide (peptide)
peptide: RARADADARARADADA-NH2
modifications: not fully specified (N-terminus); also: biotin linked via 2 aminocaproic acid groups, attachment residue not given here
notes: Synthetic self-assembling peptide; In the assays it was mixed 1:100 with nonbiotinylated RAD16-II (1% final peptide weight/volume) and assembled into fibers; also called biotinylated self-assembling peptides; biotinylated peptides
Consider B1, for which the dissociation constant Kd stood at 190 nM.
